Sequences and labels used below:
T1: UbP_C F195A (human, UniProt Q8WUN7 129-234, F195A)
T1 sequence: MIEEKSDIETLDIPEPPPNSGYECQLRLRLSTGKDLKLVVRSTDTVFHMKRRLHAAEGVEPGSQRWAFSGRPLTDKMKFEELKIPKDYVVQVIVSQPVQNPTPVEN

T2: UbP_C Q219A/I221A (human, UniProt Q8WUN7 129-234, Q219A | I221A)
T2 sequence: T1 sequence with A67F, Q91A, I93A

B1: USP5_UBA1 (first UBA domain of USP5, residues 631-692) (domain or fragment)
chain: MLDESVIIQLVEMGFPMDACRKAVYYTGNSGAEAAMNWVMSHMDDPDFANPLILPGSSGPGS
B2: UbP_C (C-terminal part of DC-UbP, residues 129-234), His-tagged (domain or fragment)
chain: T1 sequence with A67F

Numbering of substitutions follows the chain as printed.

Holding throughout (assay): NMR
Assay [1] addresses T1, UbP_C F195A.
Assay [2] has as its target T2, UbP_C Q219A/I221A.
Assay [3] concerns the target B1.

A word on the Kd: it is the free concentration of one partner at which half of the binding sites on the other are occupied at equilibrium, for simple one-to-one binding. The low end stands for higher affinity, the high end for lower affinity. Regarding B1, the figures for the Kd in assay [1] and in assay [2] were above 3000 µM and 770 µM, respectively. In the case of B2, binding in assay [3] was put at a Kd of 800 µM.

The values above are taken from paper PMC4160250 (2014).
